From article PMC13188885, “Zero-valent sulfur is the product of assimilatory sulfite reductase and a substrate of cysteine synthase” (Applied and Environmental Microbiology, 2026) come the findings set out here.

By Km is commonly meant the substrate concentration at which the rate is half of its maximum. As usually defined, the Vmax is the rate approached at saturating substrate. A word on the kcat: it is the number of substrate molecules converted per active site and unit of time at saturation. What is called kcat/Km is the turnover number divided by the Michaelis constant.

What all share (assay): mBBr-HPLC of cysteine released by TCEP; Michaelis-Menten fit
Holding throughout (conditions): O-acetyl-L-serine co-substrate 1.0-2.0 mM, 100 µM PLP, pH 7.4, 30 °C

Substrate in data set [1]: N[C@@H](CCC(=O)N[C@@H](CSS)C(=O)NCC(=O)O)C(=O)O
In kind it is biochemical, Escherichia coli. An excerpt: (§1) mBBr-HPLC of cysteine released by TCEP; Michaelis-Menten fit on EcCysK | We then assayed the kinetics of all five cysteine synthases

Substrate in data set [2]: O=S(O)(O)=S
The class given is biochemical, Escherichia coli.
Source text: as §1

Substrate in data set [3]: N[C@@H](CCC(=O)N[C@@H](CSS)C(=O)NCC(=O)O)C(=O)O
The class given is biochemical, Saccharolobus islandicus. An excerpt:
(§2) mBBr-HPLC of cysteine released by TCEP; Michaelis-Menten fit on SiRe_1641 | We then assayed the kinetics of all five cysteine synthases

Substrate in data set [4]: O=S(O)(O)=S
In kind it is biochemical, Saccharolobus islandicus.
Source text: as §2

Substrate in data set [5]: N[C@@H](CCC(=O)N[C@@H](CSS)C(=O)NCC(=O)O)C(=O)O
In kind it is biochemical, Escherichia coli. An excerpt:
(§3) mBBr-HPLC of cysteine released by TCEP; Michaelis-Menten fit on EcCysM | We then assayed the kinetics of all five cysteine synthases
The source holds these as a separate data set.

Substrate in data set [6]: O=S(O)(O)=S
The class given is biochemical, Escherichia coli.
Source text: as §3
The source holds these as a separate data set.

B1: EcCysK (Escherichia coli K-12) (protein)
chain: MSKIFEDNSLTIGHTPLVRLNRIGNGRILAKVESRNPSFSVKCRIGANMIWDAEKRGVLKPGVELVEPTSGNTGIALAYVAAARGYKLTLTMPETMSIERRKLLKALGANLVLTEGAKGMKGAIQKAEEIVASNPEKYLLLQQFSNPANPEIHEKTTGPEIWEDTDGQVDVFIAGVGTGGTLTGVSRYIKGTKGKTDLISVAVEPTDSPVIAQALAGEEIKPGPHKIQGIGAGFIPANLDLKLVDKVIGITNEEAISTARRLMEEEGILAGISSGAAVAAALKLQEDESFTNKNIVVILPSSGERYLSTALFADLFTEKELQQ
notes: N-terminal His-tag, expressed in E. coli BL21(DE3), Ni-NTA
Regarding B1, in data set [1], the Michaelis constant (Km) came out at 265 ± 37 µM, the Vmax was found to be 0.163 µM/min/mg and the kcat worked out at 9.78 ± 0.665 s⁻¹. In addition, in data set [2], the Km turned out to be 1036 ± 82 µM, the Vmax stood at 0.074 µM/min/mg and the catalytic constant (kcat) amounted to 2.45 ± 0.935 s⁻¹.

B2: SiRe_1641 (Saccharolobus islandicus REY15A) (protein)
chain: MSNPLHVFSNEQELLEGMWPTPLLKLRIGNDTWAKLEFYNPFSRSVKDRTAWFLFRQALIKNVNHIVEATSGNTGIALASLSSIYGMQFTMFLPVVAPKVYKVLVKLLGGNVIEAGNSTNDVIPLVKRFAEMSNAVNLDQFNNPINVIAHYETTAREIDEQLTSIGKRPSRIIATMGTGGHIAGVAKYFKEKYGNDVEIVGVQPSENSRIPGIKRQNGSNSLLRDIKIDRVVDVSLEEAIDGTISVARTSGILIGISAGATVAAYKRINDVSSTTVLIFPDDAFKYVDILEQTLKEI
notes: as for B1
B2: in data set [3], the Km amounted to 279 ± 32 µM, the Vmax worked out at 0.174 µM/min/mg and the kcat was 4.92 ± 1.27 s⁻¹. Also, in data set [4], the Km was 1126 ± 162 µM, the maximum rate (Vmax) is 0.065 µM/min/mg and the turnover number (kcat) came to 1.52 ± 0.511 s⁻¹.

B3: EcCysM (Escherichia coli K-12) (protein)
chain: MSTLEQTIGNTPLVKLQRMGPDNGSEVWLKLEGNNPAGSVKDRAALSMIVEAEKRGEIKPGDVLIEATSGNTGIALAMIAALKGYRMKLLMPDNMSQERRAAMRAYGAELILVTKEQGMEGARDLALEMANRGEGKLLDQFNNPDNPYAHYTTTGPEIWQQTGGRITHFVSSMGTTGTITGVSRFMREQSKPVTIVGLQPEEGSSIPGIRRWPTEYLPGIFNASLVDEVLDIHQRDAENTMRELAVREGIFCGVSSGGAVAGALRVAKANPDAVVVAIICDRGDRYLSTGVFGEEHFSQGAGI
notes: as for B1
Consider B3, for which, in data set [5], the Km was found to be 325 ± 33 µM, the maximum rate (Vmax) came to 0.155 µM/min/mg, the kcat is 5.16 ± 1.55 s⁻¹ and the kcat/Km was 14700 M⁻¹ s⁻¹. For the same protein, in data set [6], the Michaelis constant (Km) came out at 408 ± 28 µM, the maximal velocity (Vmax) was 0.173 µM/min/mg, the kcat amounted to 5.81 ± 0.92 s⁻¹ and the kcat/Km turned out to be 12600 M⁻¹ s⁻¹.
